Test system: thrombosis model in Guinea-pig (FeCl3 carotid artery thrombosis)
Experiment: Enhancement of thrombolytic activity of TPA in thrombosis model in Guinea-pig
Assay type: in vivo, Male Hartley guinea-pigs
Details: Group 1 (5 animals): saline and r-TPA 0.30 mg/kg i.v. bolus +1.0 mg/kg/hour i.v. infusion; reperfusion = 50 % recovery of carotid blood flow velocity; recorded up to 90 minutes
Excerpt: Male Hartley guinea-pigs (500-800 g) were anesthetized with urethane (1.25 g/kg i.p.). The carotid artery and cervical vein were carefully exposed after a midline cervical insision. The vein was cannulated with a polyethylene catheter (PE50; Becton Dikinson, U.S.A.) for the injection and infusion of the drug. A pulse Dopplar flow probe was placed around the carotid artery to record the blood flow velocity to moniter thrombus formation and thrombolysis. Carotid artery thrombosis was induced by the FeCl3 method as follows;
a square (1 mm×1 mm) of ADVANTEC No. 2 filter paper immersed in 20% FeCl3 was placed on the carotid artery which became occluded by a thrombus.
When the blood flow velocity decreased to zero, the filter paper was removed from the vessel and the carotid artery were washed with saline more than 4 times. The test compound or saline was injected 3 minutes after the washing and 3 minutes later r-TPA [Actilyse (trademark); Boehringer Ingelheim Ltd] was infused for 60 minutes.
The animals were divided into the following groups;
Group 1 (5 animals): Saline and r-TPA at 0.30 mg/kg i.v. bolus +1.0 mg/kg/hour i.v. infusion […]
The reperfusion was defined as 50 % recovery of carotid artery blood flow velocity compared with the initial value. The blood flow was recorded up to 90 minutes.

B1: r-TPA: r-TPA [Actilyse (trademark); Boehringer Ingelheim Ltd], tissue plasminogen activator, infused for 60 minutes (protein, UniProt P00750 36-562, looked up)
Tissue-type plasminogen …: SYQVICRDEKTQMIYQQHQSWLRPVLRSNRVEYCWCNSGRAQCHSVPVKSCSEPRCFNGGTCQQALYFSDFVCQCPEGFAGKCCEIDTRATCYEDQGISYRGTWSTAESGAECTNWNSSALAQKPYSGRRPDAIRLGLGNHNYCRNPDRDSKPWCYVFKAGKYSSEFCSTPACSEGNSDCYFGNGSAYRGTHSLTESGASCLPWNSMILIGKVYTAQNPSAQALGLGKHNYCRNPDGDAKPWCHVLKNRRLTWEYCDVPSCSTCGLRQYSQPQFRIKGGLFADIASHPWQAAIFAKHRRSPGERFLCGGILISSCWILSAAHCFQERFPPHHLTVILGRTYRVVPGEEEQKFEVEKYIVHKEFDDDTYDNDIALLQLKSDSSRCAQESSVVRTVCLPPADLQLPDWTECELSGYGKHEALSPFYSERLKEAHVRLYPSSRCTSQHLLNRTVTDNMLCAGDTRSGGPQANLHDACQGDSGGPLVCLNDGRMTLVGIISWGLGCGQKDVPGVYTKVTNYLDWIRDNMRP
- number of animals in which reperfusion was observed: 1

Source: US5574016A, “Peptide compound and a process for the preparation thereof” (Fujisawa Pharmaceutical Co., Ltd., priority 1991, dated 1996)
